B1: Anti-IL-6 antibody, heavy chain S35H, G66D, Q99D / light chain WT (antibody, IgG1, V domains shown)
VH: EVQLVESGGGLVQPGGSLRLSCAASGFTFSPFAMHWVRQAPGKGLEWVAKISPGGSWTYYSDTVTDRFTFSLDTSKSTAYLQMNSLRAEDTAVYYCARDLWGYYALDIWGQGTLVTVSS
VL: DIQLTQSPSSLSASVGDRVTITCSASISVSYMYWYQQKPGKAPKLLIYDMSNLASGVPSRFSGSGSGTDFTLTISSLQPEDFATYYCMQWSGYPYTFGQGTKVEIK
notes: IgG1; variable domains only
B2: Anti-IL-6 antibody, heavy chain S35H, G66D, Q99R / light chain M32L, M50D, N52S, M88Q (antibody, IgG1, V domains shown)
VH: EVQLVESGGGLVQPGGSLRLSCAASGFTFSPFAMHWVRQAPGKGLEWVAKISPGGSWTYYSDTVTDRFTFSLDTSKSTAYLQMNSLRAEDTAVYYCARRLWGYYALDIWGQGTLVTVSS
VL: DIQLTQSPSSLSASVGDRVTITCSASISVSYLYWYQQKPGKAPKLLIYDDSSLASGVPSRFSGSGSGTDFTLTISSLQPEDFATYYCQQWSGYPYTFGQGTKVEIK
notes: IgG1; variable domains only; VL is variant III
B3: Anti-IL-6 antibody, heavy chain S35H, G66D, Q99K / light chain WT (antibody, IgG1, V domains shown)
VH: EVQLVESGGGLVQPGGSLRLSCAASGFTFSPFAMHWVRQAPGKGLEWVAKISPGGSWTYYSDTVTDRFTFSLDTSKSTAYLQMNSLRAEDTAVYYCARKLWGYYALDIWGQGTLVTVSS
VL: DIQLTQSPSSLSASVGDRVTITCSASISVSYMYWYQQKPGKAPKLLIYDMSNLASGVPSRFSGSGSGTDFTLTISSLQPEDFATYYCMQWSGYPYTFGQGTKVEIK
notes: IgG1; variable domains only
B4: Anti-IL-6 antibody, heavy chain S35H, G66D, Q99E / light chain M32L, M50D, N52S, M88Q (antibody, IgG1, V domains shown)
VH: EVQLVESGGGLVQPGGSLRLSCAASGFTFSPFAMHWVRQAPGKGLEWVAKISPGGSWTYYSDTVTDRFTFSLDTSKSTAYLQMNSLRAEDTAVYYCARELWGYYALDIWGQGTLVTVSS
VL: DIQLTQSPSSLSASVGDRVTITCSASISVSYLYWYQQKPGKAPKLLIYDDSSLASGVPSRFSGSGSGTDFTLTISSLQPEDFATYYCQQWSGYPYTFGQGTKVEIK
notes: as for B2
B5: Anti-IL-6 antibody, heavy chain S35H, G66D, Q99H / light chain WT (antibody, IgG1, V domains shown)
VH: EVQLVESGGGLVQPGGSLRLSCAASGFTFSPFAMHWVRQAPGKGLEWVAKISPGGSWTYYSDTVTDRFTFSLDTSKSTAYLQMNSLRAEDTAVYYCARHLWGYYALDIWGQGTLVTVSS
VL: DIQLTQSPSSLSASVGDRVTITCSASISVSYMYWYQQKPGKAPKLLIYDMSNLASGVPSRFSGSGSGTDFTLTISSLQPEDFATYYCMQWSGYPYTFGQGTKVEIK
notes: IgG1; variable domains only
B6: Anti-IL-6 antibody, heavy chain S35H, G66D, Q99R / light chain WT (antibody, IgG1, V domains shown)
VH: EVQLVESGGGLVQPGGSLRLSCAASGFTFSPFAMHWVRQAPGKGLEWVAKISPGGSWTYYSDTVTDRFTFSLDTSKSTAYLQMNSLRAEDTAVYYCARRLWGYYALDIWGQGTLVTVSS
VL: DIQLTQSPSSLSASVGDRVTITCSASISVSYMYWYQQKPGKAPKLLIYDMSNLASGVPSRFSGSGSGTDFTLTISSLQPEDFATYYCMQWSGYPYTFGQGTKVEIK
notes: IgG1; variable domains only
B7: Anti-IL-6 antibody, heavy chain S35H, G66D, Q99I / light chain WT (antibody, IgG1, V domains shown)
VH: EVQLVESGGGLVQPGGSLRLSCAASGFTFSPFAMHWVRQAPGKGLEWVAKISPGGSWTYYSDTVTDRFTFSLDTSKSTAYLQMNSLRAEDTAVYYCARILWGYYALDIWGQGTLVTVSS
VL: DIQLTQSPSSLSASVGDRVTITCSASISVSYMYWYQQKPGKAPKLLIYDMSNLASGVPSRFSGSGSGTDFTLTISSLQPEDFATYYCMQWSGYPYTFGQGTKVEIK
notes: IgG1; variable domains only
B8: Anti-IL-6 antibody, heavy chain S35H, G66D, Q99K / light chain M32L, M50D, N52S, M88Q (antibody, IgG1, V domains shown)
VH: EVQLVESGGGLVQPGGSLRLSCAASGFTFSPFAMHWVRQAPGKGLEWVAKISPGGSWTYYSDTVTDRFTFSLDTSKSTAYLQMNSLRAEDTAVYYCARKLWGYYALDIWGQGTLVTVSS
VL: DIQLTQSPSSLSASVGDRVTITCSASISVSYLYWYQQKPGKAPKLLIYDDSSLASGVPSRFSGSGSGTDFTLTISSLQPEDFATYYCQQWSGYPYTFGQGTKVEIK
notes: as for B2
B9: Anti-IL-6 antibody, heavy chain S35H, G66D, Q99G / light chain WT (antibody, IgG1, V domains shown)
VH: EVQLVESGGGLVQPGGSLRLSCAASGFTFSPFAMHWVRQAPGKGLEWVAKISPGGSWTYYSDTVTDRFTFSLDTSKSTAYLQMNSLRAEDTAVYYCARGLWGYYALDIWGQGTLVTVSS
VL: DIQLTQSPSSLSASVGDRVTITCSASISVSYMYWYQQKPGKAPKLLIYDMSNLASGVPSRFSGSGSGTDFTLTISSLQPEDFATYYCMQWSGYPYTFGQGTKVEIK
notes: IgG1; variable domains only
B10: Anti-IL-6 antibody, heavy chain S35H, G66D, Q99G / light chain M32L, M50D, N52S, M88Q (antibody, IgG1, V domains shown)
VH: EVQLVESGGGLVQPGGSLRLSCAASGFTFSPFAMHWVRQAPGKGLEWVAKISPGGSWTYYSDTVTDRFTFSLDTSKSTAYLQMNSLRAEDTAVYYCARGLWGYYALDIWGQGTLVTVSS
VL: DIQLTQSPSSLSASVGDRVTITCSASISVSYLYWYQQKPGKAPKLLIYDDSSLASGVPSRFSGSGSGTDFTLTISSLQPEDFATYYCQQWSGYPYTFGQGTKVEIK
notes: as for B2
B11: Anti-IL-6 antibody, heavy chain S35H, G66D, Q99L / light chain WT (antibody, IgG1, V domains shown)
VH: EVQLVESGGGLVQPGGSLRLSCAASGFTFSPFAMHWVRQAPGKGLEWVAKISPGGSWTYYSDTVTDRFTFSLDTSKSTAYLQMNSLRAEDTAVYYCARLLWGYYALDIWGQGTLVTVSS
VL: DIQLTQSPSSLSASVGDRVTITCSASISVSYMYWYQQKPGKAPKLLIYDMSNLASGVPSRFSGSGSGTDFTLTISSLQPEDFATYYCMQWSGYPYTFGQGTKVEIK
notes: IgG1; variable domains only
B12: Anti-IL-6 antibody, heavy chain S35H, G66D, Q99P / light chain M32L, M50D, N52S, M88Q (antibody, IgG1, V domains shown)
VH: EVQLVESGGGLVQPGGSLRLSCAASGFTFSPFAMHWVRQAPGKGLEWVAKISPGGSWTYYSDTVTDRFTFSLDTSKSTAYLQMNSLRAEDTAVYYCARPLWGYYALDIWGQGTLVTVSS
VL: DIQLTQSPSSLSASVGDRVTITCSASISVSYLYWYQQKPGKAPKLLIYDDSSLASGVPSRFSGSGSGTDFTLTISSLQPEDFATYYCQQWSGYPYTFGQGTKVEIK
notes: as for B2
B13: Anti-IL-6 antibody, heavy chain S35H, G66D, Q99E / light chain WT (antibody, IgG1, V domains shown)
VH: EVQLVESGGGLVQPGGSLRLSCAASGFTFSPFAMHWVRQAPGKGLEWVAKISPGGSWTYYSDTVTDRFTFSLDTSKSTAYLQMNSLRAEDTAVYYCARELWGYYALDIWGQGTLVTVSS
VL: DIQLTQSPSSLSASVGDRVTITCSASISVSYMYWYQQKPGKAPKLLIYDMSNLASGVPSRFSGSGSGTDFTLTISSLQPEDFATYYCMQWSGYPYTFGQGTKVEIK
notes: IgG1; variable domains only
B14: Anti-IL-6 antibody, heavy chain S35H, G66D, Q99I / light chain M32L, M50D, N52S, M88Q (antibody, IgG1, V domains shown)
VH: EVQLVESGGGLVQPGGSLRLSCAASGFTFSPFAMHWVRQAPGKGLEWVAKISPGGSWTYYSDTVTDRFTFSLDTSKSTAYLQMNSLRAEDTAVYYCARILWGYYALDIWGQGTLVTVSS
VL: DIQLTQSPSSLSASVGDRVTITCSASISVSYLYWYQQKPGKAPKLLIYDDSSLASGVPSRFSGSGSGTDFTLTISSLQPEDFATYYCQQWSGYPYTFGQGTKVEIK
notes: as for B2
B15: Anti-IL-6 antibody, heavy chain S35H, G66D, Q99L / light chain M32L, M50D, N52S, M88Q (antibody, IgG1, V domains shown)
VH: EVQLVESGGGLVQPGGSLRLSCAASGFTFSPFAMHWVRQAPGKGLEWVAKISPGGSWTYYSDTVTDRFTFSLDTSKSTAYLQMNSLRAEDTAVYYCARLLWGYYALDIWGQGTLVTVSS
VL: DIQLTQSPSSLSASVGDRVTITCSASISVSYLYWYQQKPGKAPKLLIYDDSSLASGVPSRFSGSGSGTDFTLTISSLQPEDFATYYCQQWSGYPYTFGQGTKVEIK
notes: as for B2
B16: Anti-IL-6 antibody, heavy chain S35H, G66D, Q99H / light chain M32L, M50D, N52S, M88Q (antibody, IgG1, V domains shown)
VH: EVQLVESGGGLVQPGGSLRLSCAASGFTFSPFAMHWVRQAPGKGLEWVAKISPGGSWTYYSDTVTDRFTFSLDTSKSTAYLQMNSLRAEDTAVYYCARHLWGYYALDIWGQGTLVTVSS
VL: DIQLTQSPSSLSASVGDRVTITCSASISVSYLYWYQQKPGKAPKLLIYDDSSLASGVPSRFSGSGSGTDFTLTISSLQPEDFATYYCQQWSGYPYTFGQGTKVEIK
notes: as for B2
B17: Anti-IL-6 antibody, heavy chain S35H, G66D, Q99F / light chain WT (antibody, IgG1, V domains shown)
VH: EVQLVESGGGLVQPGGSLRLSCAASGFTFSPFAMHWVRQAPGKGLEWVAKISPGGSWTYYSDTVTDRFTFSLDTSKSTAYLQMNSLRAEDTAVYYCARFLWGYYALDIWGQGTLVTVSS
VL: DIQLTQSPSSLSASVGDRVTITCSASISVSYMYWYQQKPGKAPKLLIYDMSNLASGVPSRFSGSGSGTDFTLTISSLQPEDFATYYCMQWSGYPYTFGQGTKVEIK
notes: IgG1; variable domains only
B18: Anti-IL-6 antibody, heavy chain S35H, G66D, Q99F / light chain M32L, M50D, N52S, M88Q (antibody, IgG1, V domains shown)
VH: EVQLVESGGGLVQPGGSLRLSCAASGFTFSPFAMHWVRQAPGKGLEWVAKISPGGSWTYYSDTVTDRFTFSLDTSKSTAYLQMNSLRAEDTAVYYCARFLWGYYALDIWGQGTLVTVSS
VL: DIQLTQSPSSLSASVGDRVTITCSASISVSYLYWYQQKPGKAPKLLIYDDSSLASGVPSRFSGSGSGTDFTLTISSLQPEDFATYYCQQWSGYPYTFGQGTKVEIK
notes: as for B2

18 molecules from patent publication US20240209076A1 (KODIAK SCIENCES, published 2024) can be followed below.

human IL-6, sequence (P05231 30-212 limits assumed): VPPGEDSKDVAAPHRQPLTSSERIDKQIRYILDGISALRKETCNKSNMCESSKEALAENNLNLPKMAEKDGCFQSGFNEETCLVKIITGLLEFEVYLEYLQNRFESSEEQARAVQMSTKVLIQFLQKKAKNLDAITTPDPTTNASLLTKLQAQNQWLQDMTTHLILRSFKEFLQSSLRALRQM

The assay has as its target human IL-6 (human, UniProt P05231 30-212). Description: SPR Biacore, supernatant, Protein A capture, 37 C. Put shortly:
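Antibodies from 1:20-diluted culture supernatant in HBS-EP+ were captured on a Protein A chip at 37 C, with 10 mM glycine pH 1.7 regeneration. Sensorgrams were double-reference subtracted and fitted to a 1:1 Langmuir model.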
(In general: SPR reads the build-up and loss of mass on a sensor chip optically.)
The Kd is the free concentration of one partner at which half of the binding sites on the other are occupied at equilibrium, for simple one-to-one binding. A higher Kd goes with weaker binding. As a reminder, the koff is the first-order rate constant of dissociation. As a reminder, the kon is the rate constant with which the complex forms. On to B1, for which the Kd was determined as 2.34 nM, the dissociation rate constant (koff) was 0.00302 s⁻¹ and the kon is 1.29e+06 M⁻¹ s⁻¹.
For B2, in that order: 2.34 nM, 0.000657 s⁻¹ and 280000 M⁻¹ s⁻¹.
For B3 the same measures were 15.1 nM, 0.00333 s⁻¹ and 220000 M⁻¹ s⁻¹.
Molecule B4 had a dissociation constant Kd of 4.71 nM, a dissociation rate constant (koff) of 0.00089 s⁻¹ and an on-rate constant (kon) of 189000 M⁻¹ s⁻¹.
For B5 the same measures were 1.7 nM, 0.00136 s⁻¹ and 802000 M⁻¹ s⁻¹.
In turn, B6 displayed a dissociation constant (Kd) of 11.4 nM, a dissociation rate constant (koff) of 0.00161 s⁻¹ and a kon of 141000 M⁻¹ s⁻¹.
For B7, in that order: 3.86 nM, 0.00335 s⁻¹ and 868000 M⁻¹ s⁻¹.
In turn, B8 had a Kd of 0.368 nM, a koff of 0.00146 s⁻¹ and a kon of 3.97e+06 M⁻¹ s⁻¹.
For B9 the same measures were 0.961 nM, 0.0033 s⁻¹ and 3.43e+06 M⁻¹ s⁻¹.
Turning to B10, binding was put at a Kd of 2.58 nM, the off-rate (koff) came out at 0.00774 s⁻¹ and the kon is 3e+06 M⁻¹ s⁻¹.
For B11 the same measures were 0.244 nM, 0.000262 s⁻¹ and 1.07e+06 M⁻¹ s⁻¹.
Molecule B12 showed an equilibrium dissociation constant (Kd) of 1.35 nM, a koff of 0.00169 s⁻¹ and a kon of 1.25e+06 M⁻¹ s⁻¹.
For B13, in that order: 3.91 nM, 0.00193 s⁻¹ and 493000 M⁻¹ s⁻¹.
For B14 the same measures were 0.0381 nM, 0.000206 s⁻¹ and 5.41e+06 M⁻¹ s⁻¹.
Consider B15, for which binding was characterised by a dissociation constant (Kd) of 0.595 nM, the off-rate constant (koff) was 0.000775 s⁻¹ and the kon is 1.3e+06 M⁻¹ s⁻¹.
For B16 the same measures were 5.52 nM, 0.00441 s⁻¹ and 798000 M⁻¹ s⁻¹.
For B17, in that order: 3.39 nM, 0.00166 s⁻¹ and 489000 M⁻¹ s⁻¹.
For B18 the same measures were 0.0997 nM, 0.000113 s⁻¹ and 1.14e+06 M⁻¹ s⁻¹.
